For test [1], the target named is T1, human CLDN18.2 on cells (CHO-hCLDN18.2, HEK293-hCLDN18.2, KATO III-hCLDN18.2, DAN-G-hCLDN18.2, NUGC-4) (human, UniProt P56856-2 1-261).
T1 construct: whole, on cells; NUGC-4 is used untransfected; also called human Claudin18.2
Description: flow cytometry (FACS) on CHO-hCLDN18.2 cells, MFI against Log[Conc.(nM)]; EC50 from the table under the plot. As to the method: (§1) The binding of each of the above 9 antibodies to the CHO-S cell lines stably transfected with human CLDN18.2 and human CLDN18.1 (i.e., CHO-hCLDN18.2 and CHO-hCLDN18.1 prepared as described in the Examples) obtained in Example 1 was determined by flow cytometry (FACS). Reference was made to Example 2 for the experimental methods. The experimental data were analyzed using GraphPad Prism software, and FIGS. 1 and 2 were obtained.
A general note: Flow cytometry measures light scatter and fluorescence of single cells or particles in a stream.

Test [2] deals with T2, human CLDN18.1 on cells (CHO-hCLDN18.1) (human, UniProt P56856 1-261).
T2 construct: whole, on cells; also called human Claudin18.1
Description: flow cytometry (FACS) on CHO-hCLDN18.1 cells. Here is the method:
as §1

The target in test [3] is T3, human Claudin18.2 protein (P50251802, GenScript) (human, UniProt P56856-2 1-261, limits assumed).
T3 construct: also called human CLDN18.2
Description: BLI (Fortebio Octet Red96), AHC sensor, antibody and human Claudin18.2 protein (GenScript). As to the method:
The equilibrium dissociation constant (KD) for binding of the antibodies of the present invention to human CLDN18.2 was determined by bio-layer interferometry (BLI). A BLI affinity assay was conducted according to the existing method (Estep, P et al., High throughput solution based measurement of antibody-antigen affinity and epitope binding. MAbs, 2013.5(2): p. 270-8). The AHC (18-5060, Fortebio) sensor was soaked in SD buffer (lx PBS, BSA 0.1%, Tween-20 0.05%). 100 μL of SD buffer, each antibody and human Claudin18.2 protein (P50251802, GenScript) were added to a 96-well black polystyrene half-area microplate (Greiner, 675076), respectively. The detection was performed using Fortebio Octet Red96, and the KD values were analyzed using Fortebio Octet analysis software.
In general terms: BLI is a label-free optical method that tracks binding on a fibre tip over time.

Test [4] concerns the target T1, human CLDN18.2 on cells (CHO-hCLDN18.2, …). In words: flow cytometry (FACS) on CHO-hCLDN18.2 cells, MFI against Log[Conc.(nM)]; EC50 from the table under the plot. Here is the method: as §1
The source holds these as a separate data set.

Where two headings read alike, the source gives them in different places.

B1: 38F8 (antibody, human IgG1, kappa, V domains shown)
VH: EVQLVESGGGLVKPGGSLKLSCAASGFSFSDYGMHWVRQAPEKGLEWIAYINSGSRTLYYADTVKGRFTISRDNAKNTLFLQMTSLRSEETAMYYCTRNAYYGNAMDYWGQGTSVTVSS
VL: DIQMTQSPSSLTVTAGEKVTMSCKSSQSLLNSGNQRNYLTWYQQIPGQPPKLLIYWSSTRGSGVPDRFTGSGSGTDFTLTISSVQAEDLAVYFCQNVYYYPFTFGSGTRLEVKR
What is called EC50 is the concentration needed to bring the measured effect to its halfway point. High values mean weaker potency, low ones greater potency. By Kd is commonly meant the free concentration of one partner at which half of the binding sites on the other are occupied at equilibrium, for simple one-to-one binding. Take B1: the 50% effective concentration (EC50) in test [1] stood at 5.88 nM. Moreover, the binding result in test [2] is reported as “no binding”. In addition, the affinity in test [3], expressed as Kd, was 1.03 nM.

B2: 51H10 (antibody, human IgG1, kappa, V domains shown)
VH: EVQLQQSVPELVKPGASVRMSCKASGYTFTKYIIQWVKQKPGQGLEWIAYINPYNDDTKYNEKFKGKATLTSDKSASTAYMELSSLTSEDSAVYYCATTYYGNSFPNWGQGTLVTVSA
VL: DIVMTQSPSSLTVTAGERVTMTCKSSQSLLNSGNQKNYLTWYQQKPGQPPKLLIYWASTRESGVPDRFTGSGSGTDFTLTISSLQSEDLAVYFCQNDYSFPFTFGSGTKLEIKR
With B2, in test [4], the EC50 worked out at 7.51 nM. Also, the binding result in test [2] is on record as “no binding”. This molecule also yielded an equilibrium dissociation constant (Kd) in test [3] of 1.9 nM.

B3: 3G3 (antibody, human IgG1, kappa, V domains shown)
VH: QVQLQQSGPQLVRPGASVKISCKASGYSFTTYWMHWVKQRPGQGLEWIGLIDPSDSETRLNQKFKDKATLTVDKSSSTAYMRLSSPTSEDSAVYYCASNRWLLGWGQGTLVTVSS
VL: DIQMIQSPSSLTVTAGEKVTMSCKSSQSLLNSGNQKNYLTWYQQKPGQPPKLLIYWASTRESGVPDRFTGSGSGTDFTLTISSVQTEDLAVYYCQNDYSYPLTFGAGTKLEIKR
As for B3, in test [4], the EC50 is 9.75 nM. In addition, the binding result in test [2] was “no binding”. The Kd in test [3] stood at 2.8 nM.

B4: 14A5 (antibody, human IgG1, kappa, V domains shown)
VH: QVQLKESGPGLVAPSQSLSITCSVSGFSLNSYGVGWVRQPPGKGLEWLGVIWGDGSTNYHSVLISRLSIRKDNSKSQVFLKLNSLQTDDTATYYCAMITRGNAMDYWGQGTSVTVSS
VL: DIVMTQSPSSLTVTAGEKITMSCKSSQSLLNSGNQRNYLTWYQQKPGQTPKLLIYWASTRKSGVPDRFTGSGSGTDFTLTISSVQAEDLAVYSCQNNYLFPLTFGAGTKLELKR
Take B4: it took 5.49 nM to reach a half-maximal effect in test [4] (EC50). Moreover, the binding result in test [2] was “no binding”. The molecule further showed an equilibrium dissociation constant (Kd) in test [3] of 0.529 nM.

B5: 25C7 (antibody, human IgG1, kappa, V domains shown)
VH: EVMLVESGGGLVQPGGSRKLSCAASGFTFSDYGMAWVRQAPGKGPEWVAFINNLAYSIYYVDTVTGRFTISRENAKDTLYLEMSSLRSEDTALYYCARFTTGNVMDYWGQGTSVTVSS
VL: DIVMTQSPSSLTVTAGEKVTMTCKSSQSLLNGGNQKNYLTWYQQKPGQPPKLLIYWSSTRESGVPDRFTGSGSGTDFTLTITSVQAEDLAVYYCQNSYSYPLTFGSGTKLELKR
As for B5, the EC50 in test [4] worked out at 13.6 nM. Also, in test [2], the binding result is on record as “no binding”. Besides, the dissociation constant (Kd) in test [3] was 1.46 nM.

B6: 59C1 (antibody, human IgG1, kappa, V domains shown)
VH: QVQLKESGPDLVKPSQSLSLTCTVTGYSITSGYGWNWIRQFPGNKLEWMGYIHFSGSTNYNPSLKSRISITRDTSKNQFFLQLNSVTTEDTATYYCARSGKGNAMDYWGQGTSVTVSS
VL: DIQMTQSPSSLTVTAGEKVTMSCKSSQSLLNSGNQKNYLTWYQQKPGQPPKLLIYWASTRESGVPDRFTGSGSGTDFTLTVINMQAEDLALYYCQNDYYFPFTFGSGTKLEIKR
In turn, B6 displayed an EC50 in test [4] of 5.7 nM. The binding result in test [2] was “no binding”. In test [3], this molecule displayed a Kd of 1.01 nM.

(Values after US20230235047A1 (Innovent, published 2023).)
